In patent US20250002588A1 (DIAGONAL THERAPEUTICS, published 2025):

Biological target: ALK-1/BMPR-2 receptor pair of the PathHunter U2Os dimerization cells (DiscoverX 93-0962C3) (UniProt P37023 22-503; Q13873 27-1038)
Assay: cell-based or functional assay

Sequence of ALK-1/BMPR-2 receptor pair of the PathHunter U2Os dimerization cells (DiscoverX 93-0962C3) (P37023 22-503, chain 1 of 2): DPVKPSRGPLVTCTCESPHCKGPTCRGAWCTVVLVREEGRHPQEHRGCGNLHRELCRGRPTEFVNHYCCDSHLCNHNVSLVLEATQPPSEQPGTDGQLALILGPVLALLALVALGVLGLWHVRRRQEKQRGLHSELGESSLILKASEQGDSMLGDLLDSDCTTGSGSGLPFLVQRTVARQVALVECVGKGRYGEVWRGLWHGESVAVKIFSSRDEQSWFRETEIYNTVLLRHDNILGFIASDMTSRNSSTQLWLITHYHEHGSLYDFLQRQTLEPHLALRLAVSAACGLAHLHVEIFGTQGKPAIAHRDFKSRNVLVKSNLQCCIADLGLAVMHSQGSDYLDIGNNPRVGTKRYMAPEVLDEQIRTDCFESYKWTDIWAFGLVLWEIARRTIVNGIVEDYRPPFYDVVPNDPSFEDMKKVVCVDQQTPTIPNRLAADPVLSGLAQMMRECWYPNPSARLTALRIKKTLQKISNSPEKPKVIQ
Sequence of ALK-1/BMPR-2 receptor pair of the PathHunter U2Os dimerization cells (DiscoverX 93-0962C3) (Q13873 27-1038, chain 2 of 2): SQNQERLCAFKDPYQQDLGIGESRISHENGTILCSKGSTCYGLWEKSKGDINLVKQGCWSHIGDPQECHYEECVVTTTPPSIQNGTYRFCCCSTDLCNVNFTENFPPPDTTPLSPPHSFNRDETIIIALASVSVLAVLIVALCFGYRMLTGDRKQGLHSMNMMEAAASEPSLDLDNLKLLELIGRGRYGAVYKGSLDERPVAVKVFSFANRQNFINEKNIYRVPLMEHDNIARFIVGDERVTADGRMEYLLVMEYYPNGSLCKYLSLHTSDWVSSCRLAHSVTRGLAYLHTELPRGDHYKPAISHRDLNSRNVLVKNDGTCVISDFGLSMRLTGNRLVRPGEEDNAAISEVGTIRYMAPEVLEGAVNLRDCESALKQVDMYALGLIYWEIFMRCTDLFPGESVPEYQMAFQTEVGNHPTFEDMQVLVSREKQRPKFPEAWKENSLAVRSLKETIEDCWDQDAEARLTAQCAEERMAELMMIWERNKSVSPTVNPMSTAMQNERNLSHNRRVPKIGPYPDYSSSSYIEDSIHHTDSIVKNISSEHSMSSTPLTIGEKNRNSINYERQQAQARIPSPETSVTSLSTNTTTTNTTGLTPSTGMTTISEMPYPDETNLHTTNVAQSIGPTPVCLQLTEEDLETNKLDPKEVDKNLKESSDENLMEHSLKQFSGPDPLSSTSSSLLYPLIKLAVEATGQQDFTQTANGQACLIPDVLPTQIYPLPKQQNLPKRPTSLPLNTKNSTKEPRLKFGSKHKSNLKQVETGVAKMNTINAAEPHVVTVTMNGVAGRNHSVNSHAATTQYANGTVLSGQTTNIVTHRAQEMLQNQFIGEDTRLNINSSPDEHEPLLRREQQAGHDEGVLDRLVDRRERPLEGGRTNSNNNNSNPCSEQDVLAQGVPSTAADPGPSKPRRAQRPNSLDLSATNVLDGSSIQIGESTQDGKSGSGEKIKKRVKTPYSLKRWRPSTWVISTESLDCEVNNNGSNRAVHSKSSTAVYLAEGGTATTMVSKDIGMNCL

Binder | % Emax BMP9 [%] | Emax (RLU)
DGL732 (bispecific antibody) chain 1: EVQLLESGGGLVQPGGSLRLSCAASGFTFSDYWMTWIRQAPGKGLEWVSSISGGSTYYADSRKGRFTISRDNSENTLYLQMNSLRAEDTAVYYCARDFGVAGWFGQYGMDVWGQGTLVTVSSGGGGSGGGGSGGGGSQSVLTQPPSASGTPGQRVTISCTGSSSNIGAGYDVHWYQQLPGTAPKLLIYRSNQRPSGVPDRFSGSKSGTSASLAISGLRSEDEADYYCSSYAGNYNLVFGGGTKLTVLDKTHTCPPCPAPEAAGAPSVFLFPPKPKDTLMISRTPEVTCVVVDVSHEDPEVKFNWYVDGVEVHNAKTKPREEQYNSTYRVVSVLTVLHQDWLNGKEYKCKVSNKALPAPIEKTISKAKGQPREPQVCTLPPSRDELTKNQVSLSCAVKGFYPSDIAVEWESNGQPENNYKTTPPVLDSDGSFFLVSKLTVDKSRWQQGNVFSCSVMHEALHNHYTQKSLSLSPGWSHPQFEK chain 2: not shown | 54 | 845000
DGL734 (bispecific antibody) chain 1: EVQLLESGGGLVQPGGSLRLSCAASGFTFSDYWMTWIRQAPGKGLEWVSSISGGTTYYADSRKGRFTISRDNSENTLYLQMNSLRAEDTAVYYCARDYGVAGWFGQYGMDVWGQGTLVTVSSGGGGSGGGGSGGGGSQSVLTQPPSASGTPGQRVTISCTGSSSNIGAGYDVHWYQQLPGTAPKLLIYRSNQRPSGVPDRFSGSKSGTSASLAISGLRSEDEADYYCSSYAGNYNLVFGGGTKLTVLDKTHTCPPCPAPEAAGAPSVFLFPPKPKDTLMISRTPEVTCVVVDVSHEDPEVKFNWYVDGVEVHNAKTKPREEQYNSTYRVVSVLTVLHQDWLNGKEYKCKVSNKALPAPIEKTISKAKGQPREPQVCTLPPSRDELTKNQVSLSCAVKGFYPSDIAVEWESNGQPENNYKTTPPVLDSDGSFFLVSKLTVDKSRWQQGNVFSCSVMHEALHNHYTQKSLSLSPGWSHPQFEK chain 2: not shown | 14 | 217000
DGL735 (bispecific antibody) chain 1: EVQLLESGGGLVQPGGSLRLSCAASGFTFSDYWMTWIRQAPGKGLEWVSSISGGTTYYADSRKGRFTISRDNSENTLYLQMNSLRAEDTAVYYCARDFGVSGWFGQYGMDVWGQGTLVTVSSGGGGSGGGGSGGGGSQSVLTQPPSASGTPGQRVTISCTGSSSNIGAGYDVHWYQQLPGTAPKLLIYRSNQRPSGVPDRFSGSKSGTSASLAISGLRSEDEADYYCSSYAGNYNLVFGGGTKLTVLDKTHTCPPCPAPEAAGAPSVFLFPPKPKDTLMISRTPEVTCVVVDVSHEDPEVKFNWYVDGVEVHNAKTKPREEQYNSTYRVVSVLTVLHQDWLNGKEYKCKVSNKALPAPIEKTISKAKGQPREPQVCTLPPSRDELTKNQVSLSCAVKGFYPSDIAVEWESNGQPENNYKTTPPVLDSDGSFFLVSKLTVDKSRWQQGNVFSCSVMHEALHNHYTQKSLSLSPGWSHPQFEK chain 2: not shown | 68 | 1.06e+06
DGL861 (bispecific antibody) chain 1: not shown chain 2: EVQLLESGGGLVQPGGSLRLSCAASGFTFSDYYMNWIRQAPGKGLEWVSSISGGSTYYADSVKGRFTISRDNSENTLYLQMNSLRAEDTAVYYCARDFGVAGWFGQFGMDVWGQGTLVTVSSGGGGSGGGGSGGGGSQSVLTQPPSASGTPGQRVTISCTGSSSNIGAGYDVHWYQQLPGTAPKLLIYRSNQRPSGVPDRFSGSKSGTSASLAISGLRSEDEADYYCSSYAGNYNLVFGGGTKLTVLDKTHTCPPCPAPEAAGAPSVFLFPPKPKDTLMISRTPEVTCVVVDVSHEDPEVKFNWYVDGVEVHNAKTKPREEQYNSTYRVVSVLTVLHQDWLNGKEYKCKVSNKALPAPIEKTISKAKGQPREPQVCTLPPSRDELTKNQVSLSCAVKGFYPSDIAVEWESNGQPENNYKTTPPVLDSDGSFFLVSKLTVDKSRWQQGNVFSCSVMHEALHNHYTQKSLSLSPGWSHPQFEK | 81 | 2.08e+06
DGL737 (bispecific antibody) chain 1: not shown chain 2: EVQLLESGGGLVQPGGSLRLSCAASGFTFSDYYMTWIRQAPGKGLEWVSSISGGSTYYADSRKGRFTISRDNSENTLYLQMNSLRAEDTAVYYCARDFGVAGWFGQYGMDVWGQGTLVTVSSGGGGSGGGGSGGGGSQSVLTQPPSASGTPGQRVTISCTGSSSNIGAGYDVHWYQQLPGTAPKLLIYRSNQRPSGVPDRFSGSKSGTSASLAISGLRSEDEADYYCSSYAGNYNLVFGGGTKLTVLDKTHTCPPCPAPEAAGAPSVFLFPPKPKDTLMISRTPEVTCVVVDVSHEDPEVKFNWYVDGVEVHNAKTKPREEQYNSTYRVVSVLTVLHQDWLNGKEYKCKVSNKALPAPIEKTISKAKGQPREPQVCTLPPSRDELTKNQVSLSCAVKGFYPSDIAVEWESNGQPENNYKTTPPVLDSDGSFFLVSKLTVDKSRWQQGNVFSCSVMHEALHNHYTQKSLSLSPGWSHPQFEK | 77 | 1.2e+06
DGL863 (bispecific antibody) chain 1: not shown chain 2: EVQLLESGGGLVQPGGSLRLSCAASGFTFSDSYMSWIRQAPGKGLEWVSSISGGSTYYADSVKGRFTISRDNSENTLYLQMNSLRAEDTAVYYCARDFGVAGYFGQYGMDVWGQGTLVTVSSGGGGSGGGGSGGGGSQSVLTQPPSASGTPGQRVTISCTGSSSNIGAGYDVHWYQQLPGTAPKLLIYRSNQRPSGVPDRFSGSKSGTSASLAISGLRSEDEADYYCSSYAGNYNLVFGGGTKLTVLDKTHTCPPCPAPEAAGAPSVFLFPPKPKDTLMISRTPEVTCVVVDVSHEDPEVKFNWYVDGVEVHNAKTKPREEQYNSTYRVVSVLTVLHQDWLNGKEYKCKVSNKALPAPIEKTISKAKGQPREPQVCTLPPSRDELTKNQVSLSCAVKGFYPSDIAVEWESNGQPENNYKTTPPVLDSDGSFFLVSKLTVDKSRWQQGNVFSCSVMHEALHNHYTQKSLSLSPGWSHPQFEK | 24 | 604000
DGL862 (bispecific antibody) chain 1: not shown chain 2: EVQLLESGGGLVQPGGSLRLSCAASGFTFSDYYMNWIRQAPGKGLEWVSSISGGSTYYADSVKGRFTISRDNSENTLYLQMNSLRAEDTAVYYCARDFGVAGWFGQFGMDVWGQGTLVTVSSGGGGSGGGGSGGGGSQSVLTQPPSASGTPGQRVTISCTGSSSNIGAGYDVHWYQQLPGTAPKLLIYRSNQRPSGVPDRFSGSKSGTSASLAISGLRSEDEADYYCSSYAGNYNLVFGGGTKLTVLDKTHTCPPCPAPEAAGAPSVFLFPPKPKDTLMISRTPEVTCVVVDVSHEDPEVKFNWYVDGVEVHNAKTKPREEQYNSTYRVVSVLTVLHQDWLNGKEYKCKVSNKALPAPIEKTISKAKGQPREPQVCTLPPSRDELTKNQVSLSCAVKGFYPSDIAVEWESNGQPENNYKTTPPVLDSDGSFFLVSKLTVDKSRWQQGNVFSCSVMHEALHNHYTQKSLSLSPGWSHPQFEK | 83 | 2.13e+06
DGL736 (bispecific antibody) chain 1: not shown chain 2: EVQLLESGGGLVQPGGSLRLSCAASGFTFSDYYMTWIRQAPGKGLEWVSSISGGSTYYADSRKGRFTISRDNSENTLYLQMNSLRAEDTAVYYCARDFGVAGWFGQYGMDVWGQGTLVTVSSGGGGSGGGGSGGGGSQSVLTQPPSASGTPGQRVTISCTGSSSNIGAGYDVHWYQQLPGTAPKLLIYRSNQRPSGVPDRFSGSKSGTSASLAISGLRSEDEADYYCSSYAGNYNLVFGGGTKLTVLDKTHTCPPCPAPEAAGAPSVFLFPPKPKDTLMISRTPEVTCVVVDVSHEDPEVKFNWYVDGVEVHNAKTKPREEQYNSTYRVVSVLTVLHQDWLNGKEYKCKVSNKALPAPIEKTISKAKGQPREPQVCTLPPSRDELTKNQVSLSCAVKGFYPSDIAVEWESNGQPENNYKTTPPVLDSDGSFFLVSKLTVDKSRWQQGNVFSCSVMHEALHNHYTQKSLSLSPGWSHPQFEK | 73 | 1.13e+06
DGL864 (bispecific antibody) chain 1: not shown chain 2: EVQLLESGGGLVQPGGSLRLSCAASGFTFSDSYMSWIRQAPGKGLEWVSSISGGSTYYADSVKGRFTISRDNSENTLYLQMNSLRAEDTAVYYCARDFGVAGYFGQYGMDVWGQGTLVTVSSGGGGSGGGGSGGGGSQSVLTQPPSASGTPGQRVTISCTGSSSNIGAGYDVHWYQQLPGTAPKLLIYRSNQRPSGVPDRFSGSKSGTSASLAISGLRSEDEADYYCSSYAGNYNLVFGGGTKLTVLDKTHTCPPCPAPEAAGAPSVFLFPPKPKDTLMISRTPEVTCVVVDVSHEDPEVKFNWYVDGVEVHNAKTKPREEQYNSTYRVVSVLTVLHQDWLNGKEYKCKVSNKALPAPIEKTISKAKGQPREPQVCTLPPSRDELTKNQVSLSCAVKGFYPSDIAVEWESNGQPENNYKTTPPVLDSDGSFFLVSKLTVDKSRWQQGNVFSCSVMHEALHNHYTQKSLSLSPGWSHPQFEK | 22 | 553000
DGL860 (bispecific antibody) chain 1: not shown chain 2: EVQLLESGGGLVQPGGSLRLSCAASGFTFSDYYMNWIRQAPGKGLEWVSSISGGSTYYADSVKGRFTISRDNSENTLYLQMNSLRAEDTAVYYCARDFGVAGWFGQFGMDVWGQGTLVTVSSGGGGSGGGGSGGGGSQSVLTQPPSASGTPGQRVTISCTGSSSNIGAGYDVHWYQQLPGTAPKLLIYRSNQRPSGVPDRFSGSKSGTSASLAISGLRSEDEADYYCSSYAGNYNLVFGGGTKLTVLDKTHTCPPCPAPEAAGAPSVFLFPPKPKDTLMISRTPEVTCVVVDVSHEDPEVKFNWYVDGVEVHNAKTKPREEQYNSTYRVVSVLTVLHQDWLNGKEYKCKVSNKALPAPIEKTISKAKGQPREPQVCTLPPSRDELTKNQVSLSCAVKGFYPSDIAVEWESNGQPENNYKTTPPVLDSDGSFFLVSKLTVDKSRWQQGNVFSCSVMHEALHNHYTQKSLSLSPGWSHPQFEK | 79 | 2.01e+06
DGL733 (bispecific antibody) chain 1: EVQLLESGGGLVQPGGSLRLSCAASGFTFSDYYMTWIRQAPGKGLEWVSSISGGTTYYADSRKGRFTISRDNSENTLYLQMNSLRAEDTAVYYCARDFGVAGWFGQYGMDVWGQGTLVTVSSGGGGSGGGGSGGGGSQSVLTQPPSASGTPGQRVTISCTGSSSNIGAGYDVHWYQQLPGTAPKLLIYRSNQRPSGVPDRFSGSKSGTSASLAISGLRSEDEADYYCSSYAGNYNLVFGGGTKLTVLDKTHTCPPCPAPEAAGAPSVFLFPPKPKDTLMISRTPEVTCVVVDVSHEDPEVKFNWYVDGVEVHNAKTKPREEQYNSTYRVVSVLTVLHQDWLNGKEYKCKVSNKALPAPIEKTISKAKGQPREPQVCTLPPSRDELTKNQVSLSCAVKGFYPSDIAVEWESNGQPENNYKTTPPVLDSDGSFFLVSKLTVDKSRWQQGNVFSCSVMHEALHNHYTQKSLSLSPGWSHPQFEK chain 2: not shown | 106 | 1.65e+06
